In test [1] the target is IRE1α kinase-endoribonuclease module, fully phosphorylated (IRE1-KR-3P) (human) (UniProt O75460). In words: cross-linking.
Test [2] addresses IRE1α kinase-endoribonuclease module, unphosphorylated (IRE1-KR-0P) (human) (UniProt O75460). Kind of test: cross-linking.

Here are results for two substances from doi:10.1101/2021.03.16.435520.

“And” between values parts separate entries of the source, which are not always exact repeats. Equal entries are not always repeated.

Consider “IRE1α kinase-endoribonuclease module, fully phosphorylated (IRE1-KR-3P) (from UniProt O75460 547-977) (domain or fragment)”, for which the stoichiometry N in test [1] is 2 and 4 and 6.

For the substance “IRE1α kinase-endoribonuclease module, unphosphorylated (IRE1-KR-0P) (from UniProt O75460 547-977) (domain or fragment)”, the stoichiometry N in test [2] turned out to be 2.

Usually stoichiometry N stands for the number of molecules, sites or subunits per partner or assembly.
